Results taken from the nanobody polyreactivity screen of Harvey et al. (2022).

assay: yeast display, Sf9 membrane polyspecificity reagent, FACS + sequencing; frameworks hold sequencing errors
Procedure, shortened: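 In a synthetic yeast display library (Saccharomyces cerevisiae BJ5465), nanobody expression was induced with galactose for 36–48 hours. FACS gates were set low and high (top ~1%) using anti-HA fluorescence for expression and streptavidin fluorescence for binding of the Sf9 membrane reagent. Each polyreactivity label is drawn from the gate of origin.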

Sequence | polyreactivity (PSR sort gate)
QVQLVESGGGLVQAGGSLRLSCAASGFIIGGYAMGWYRQAPGKERELVASITSGGRTYYADSVKGRFSISRDNAKNTVFLQMNSLKPEDTAVYDCAARQQTYYYKIYYWGQGSQVTVSS | high polyreactivity
QVQLVESGGGLVQAGGSLRLSCAASGFIIGVNDMGWYRQPPGKERELVAAITSGGNTNYADSVKGRFTISRDNAKNTVYLQMNSLKPEDTAVYYCIVDTRLPMDYWGQGTQVTVSS | low polyreactivity
QVQLVESGGGLVQAGGSLRLSCAASGFIIPVYAMGWYRQAPGKERELVAAITYSGARTYYADSVKGRFTISRDNAKNTVYLQMNSLKPEDTAVYYCAAAPGYLKYSPGHYGYNYWGQGTQVTVSS | high polyreactivity
QVQLVESGGGLVQAGGSLRLSCAASGFIIYYNAMGWYRQAPGKEREFVAGISFSGDGRTYYADSVKGRFTISRDNAKNTVYLQMNSLKPEDTAVYYCAAPHRSRTHELDYWGQGTQVTVSS | low polyreactivity
QVQLVESGGGLVQAGGSLRLSCAASGFILGYNAMGWYRQAPGKERELVADITFSGGGTNYADSVKGRFTISRDNAKNSVYLQMNSLKPEDTAVYYCNAAAFSQLRVRYDYWGQGTQVTVSS | low polyreactivity
QVQLVESGGGLVQAGGSLRLSCAASGFILNQYAMGWYRQAPGKERELVAAISNGGSTNYADSVKGRFTISRDNAKNTVYLQMNSLKPEDTAVYYCAKDQSLTYSSVWGYDYWGQGTQVTVSS | low polyreactivity
QVQLVESGGGLVQAGGSLRLSCAASGFILQGYAMGWYRQAPGKERELVATITTSSRTYYADSVKGRFTISRDNAKNTVYLQMNRLKPEDTAVYYCDKSVYPYGYYYGQMDYWGQGTQVTVSS | high polyreactivity
QVQLVESGGGLVQAGGSLRLSCAASGFILSPYAMGWYRQAPGKERELGAVITISGGSTYYADSVKGRFTISRDNAKNTVYLQMNSLKPEDTAVYYCAADYYDLVYDYYYWGQGTQVTVSS | high polyreactivity
QVQLVESGGGLVQAGGSLRLSCAASGFILSRYTMGWYRQAPGKERELVATISSGGRTYYADSVKGRFTISRDNAKNTVYLQMNSLKPEDTAVYYCAAAYTYWRIPGNRYLYDYWGQGTQVTVSS | high polyreactivity
QVQLVESGGGLVQAGGSLRLSCAASGFILSRYTMGWYRQAPGKERELVATISSGGRTYYADSVKGRFTISRDNAKNTVYLQMNSLKPEDTAVYYCAAAYTYWRISGNRYLYDYWGQGTQVTVSS | high polyreactivity
QVQLVESGGGLVQAGGSLRLSCAASGFILVGYAMGWYRQARGKERELVAAITSGGTTSYADAVKGSFIISRDNAKNTVYLQMISLKPEESAVYYCAAVQWDSSSKYYYWGQGTQVTVSS | low polyreactivity
QVQLVESGGGLVQAGGSLRLSCAASGFILYFNAMGWYRQAPGKERELVAAITSDGGSTYYADSVKGRFTISRDNAKNTVYLQMNSLKPEDTAVYYCAADASTWYTEEYWGQGTQVTVSS | low polyreactivity
QVQLVESGGGLVQAGGSLRLSCAASGFILYFNAMGWYRQAPGKERELVAVISGTGVRTNYADSVKGRFTISRDNAKNTVYLQMYSLKPEDTAVYYCAAGYYSYRPRDYWGQGTQVTVSS | low polyreactivity
QVQLVESGGGLVQAGGSLRLSCAASGFILYGNARGWYRQAPGKERELVAAISSSGRTNYADYVKGRFTISRDNAKNTVYLQMNRLKPEDTAVYYCADYVRAGYGMGYWGQGTQVTVSS | low polyreactivity
QVQLVESGGGLVQAGGSLRLSCAASGFILYYNAMGWYRQAPGKERELVADISRRGTSTYYADSVKGRFTISRDNAKNTVYLQMNRLKPEDTAVYYCKAVPSARTQPYNGWGQGTQVTVSS | high polyreactivity
QVQLVESGGGLVQAGGSLRLSCAASGFILYYYAMGWYRQAPGKERELVAAISSGGNTDYADSVKGRFTISRDNAKNTVYLQMNSLKPEDTAVYYCAARGYHYSYLRGDTGYYYWGQGTQVTVSS | low polyreactivity
QVQLVESGGGLVQAGGSLRLSCAASGFINSDYAMGWYRPAPGKERELVAVITWRSGSTYYADSVKGRFTISRDYAKNTVYLQMNSLKPEDTAVYYCAARNYRNYSQGRRLGYNDWGQGTQVTVTS | high polyreactivity
QVQLVESGGGLVQAGGSLRLSCAASGFIQDLYVMGWYRQAPGKERELVAAISSVGSTYADSVKGRFTISRDNAKNTVYLQMNSLKPEDTAVYYCAKDGTDYDYNYWGQGTQVTVSS | low polyreactivity
QVQLVESGGGLVQAGGSLRLSCAASGFISDWYAMGWFRQAPGKERELVATIDWLGGSTYAHSVKGRFTISRDNAKNTVYLQMNSLKPEDTAVYYCAADSYFIAWYGAPYAYDYWGQGTQVTVSS | low polyreactivity
QVQLVESGGGLVQAGGSLRLSCAASGFISPNAMGWYRQAPGKERELVAAISRSGGSTYYADSVKGRFTISRDNAKNTVYLQMNSLKTEDTAVYYCAAGRLYSYRRQYGYWGQGTQVTVSS | high polyreactivity
QVQLVESGGGLVQAGGSLRLSCAASGFISPQNTMGWYRQAPGKERELVAAITSGGSTYYADSVKGRFTISRDNAKNTVYLLMNSLKPEDTAVYYCASRPYGTWTYGYWGQGTQVTVSS | low polyreactivity
QVQLVESGGGLVQAGGSLRLSCAASGFISSINAMGWYRQAPGKERELVAGIRARGTSTYYADSVKGRFTISRDNAKNTVYLQMNSLKPEDTAVYYCAADFTYQGSSANDYWGQGTQVTVSS | low polyreactivity

Sequence | polyreactivity (PSR sort gate)
QVQLVESGGGLVQAGGSLRLSCAASGFISSYYAMGWYRQAPGKERELVAAITSGGRTYYADSVKGRFTISRDNAKNTDYLQMNSLKPEDTAVYYCGKYSRTNAFDYWGQGTQVTVSS | high polyreactivity
QVQLVESGGGLVQAGGSLRLSCAASGFIVNVYAMVWYRQAPGKERELVAAISTSGSNTYYADSVKGRFTISLDNAKNTVYLQMNSLKPEDTAVYYCNAVRDRVRWHYYAVYYWGQGTQVTVSS | high polyreactivity
QVQLVESGGGLVQAGGSLRLSCAASGFIVVFNAMGWYRQAPGKERELVAAINGGDITNYADSVKGRFTISRDNAKNTVYLQMNSLKPEDTAVYYCAADGEDSMWTGYDYDYWGQGTQVTVSS | low polyreactivity
QVQLVESGGGLVQAGGSLRLSCAASGFIWSYVMGWYRQAPGKERQLVAAISRSGGRTYYADSVKGRFTISRDNEKNTVYLQMNSLKPEDTAVYYCAKDGGWSRLHYNYWGQGTQVTVSS | high polyreactivity
QVQLVESGGGLVQAGGSLRLSCAASGFIYDYAMGWYRQAPGKEREFVARINWSGGSTYYADSVKGRFTISRDNAKNTVYLQMNSLKPEDTAVYYCATSGWAWRSSNPYEYWGQGTQVTVSS | low polyreactivity
QVQLVESGGGLVQAGGSLRLSCAASGFIYRYNVMGWYRHAPGKEMEMVAAISTSGGRTYYADSVKGRFTISRDNAKNTVYLQMNSLKPEDSAVYYCNAVKSEVQKVGDGYYWGLGTQVTVSS | high polyreactivity
QVQLVESGGGLVQAGGSLRLSCAASGFIYTSYTMGWYRQAPGKERELVAAISYRGGRTYYADSVNGRFTISRDNAKNTVYLQMNSLKPEVTAVYYCAADRVNREFDYWGQGTQVTVSS | high polyreactivity
QVQLVESGGGLVQAGGSLRLSCAASGFIYVYNAMGWYRKAPGKEREFVAGISRSGGNTYYADSVKGRFTISRDNAKNTVYLQMNSLKPEDTAVYYCAVVNRRFGFPNVALRSNYGDYWGQGTQVTVSS | low polyreactivity
QVQLVESGGGLVQAGGSLRLSCAASGFIYYYNAMGWYSQAPGKERELVAAISSRGTSTYYADSVKGRFTISRENAKNTVYLQMNSLKPEDTAVYYCNALGNFGMDYWGQGNQVTVSS | high polyreactivity
QVQLVESGGGLVQAGGSLRLSCAASGFNFAIYAMGWYRQAPGKERELVAAINSDGSTYYADSLKGLFTISRDNAKNSDYLQINSLKPEDTAVYYCNAETAGHDMDYWGQGTQVTVSS | low polyreactivity
QVQLVESGGGLVQAGGSLRLSCAASGFNFERYAMGWYRQAPGKERELVAAISSRGGGTYYADSVKGRFTISRDNAKNTVYLQMNSLKPEDTAVYYCNRPYDYSYNYWGQGTQVTVSS | high polyreactivity
QVQLVESGGGLVQAGGSLRLSCAASGFNFLGNAMGWYRQAPGKERELVAAISSGGSTYADSVKGRFTISRDNAKNTVYLQMISLKPEDTAVYYCAVDRAFRAQNYHEYEYWGQGTQVTVSS | low polyreactivity
QVQLVESGGGLVQAGGSLRLSCAASGFNFPRYVMGWYRQAPGKERELVAAINSDISTNYADSVKGRFTISRDNANNSVYLQMTSLKPEDTAVFYCADERWDDPWEFDSWGQCTQVTVSS | low polyreactivity
QVQLVESGGGLVQAGGSLRLSCAASGFNFPYYAMGWYRQAPGKERELVAAISSSGGSTYYADSVKGRFTISRDNAKNTVYLHMNSLKPEDTAVYYCAADAYSGYSDYYWGQGTQVTVSS | low polyreactivity
QVQLVESGGGLVQAGGSLRLSCAASGFNFRFYAMGWYRQAPGKERELVAVITWSGGRTYYADSVKGRFTISRDNAKNTVYLQMNSLKPEDTAVYYCAAKRGKTYQRFDYWGQGTQVTVSS | high polyreactivity
QVQLVESGGGLVQAGGSLRLSCAASGFNFRVNAMGWYRQAPGKERELVAAITKSGGSTYYADSVKGRFTISRDNAKNTVYLQMNSLKPEDTAVYYCNVVWQYSTYVRYNYWGQGTQVTVSS | low polyreactivity
QVQLVESGGGLVQAGGSLRLSCAASGFNFSDYDMGWYRQAPGKERELVAAITYSGCSTYYADSVKGRFTISRDNAKKTVYLQMNSLKPEDTAVYYCAAVKSRYAEAVDYYYWGQGTQVTVSS | low polyreactivity
QVQLVESGGGLVQAGGSLRLSCAASGFNIGRNAMGWYRQAPGKERELVAGISISGGSTYYADSVKGRFTISRDNAKNTVYLQMNSLKPEDTAVYYCAAEYAYSLDPEEDYWGQGTQVTVSS | high polyreactivity
QVQLVESGGGLVQAGGSLRLSCAASGFNIIPYDMGWYRQAPGKEMDLVATISRGGSTNYADSVKGRFTISRDNAKNTVYLQMNSLKPEDTAVYYCAAEYKVVFSQPYGEYDYWGQGTQVTVSS | low polyreactivity
QVQLVESGGGLVQAGGSLRLSCAASGFNITYVMGWYRQAPGKERELVAVITNGGSTYYADSVKGRFTISRDNAMNTVYLLMNSLKPEDTAVYYCAARARFRYDSYYYWGQGTQLTVSS | high polyreactivity
QVQLVESGGGLVQAGGSLRLSCAASGFNIYYYTMGWYRQAPGKERELVAAISKSGGNTYYADSVKGRFTISRDNAKNTVYLQMNSLKPEDTAVYYCAASRYNTVTYYYWGQGTQVTVSS | high polyreactivity
